In patent EP4722246A1 (Inxmed (Nanjing) Co., Ltd., dated 2024):

How the values were obtained:
[1] = target: human TEM8 on CHO-hTEM8 cells (human, UniProt Q9H6X2 33-564); test: FACS on CHO-hTEM8 cells
[2] = target: T1, mouse TEM8 on CHO-mTEM8 cells (mouse, UniProt Q9CZ52 31-562); test: FACS on CHO-mTEM8 cells
T1 construct: also called murine TEM8
T1 sequence (Q9CZ52 31-562): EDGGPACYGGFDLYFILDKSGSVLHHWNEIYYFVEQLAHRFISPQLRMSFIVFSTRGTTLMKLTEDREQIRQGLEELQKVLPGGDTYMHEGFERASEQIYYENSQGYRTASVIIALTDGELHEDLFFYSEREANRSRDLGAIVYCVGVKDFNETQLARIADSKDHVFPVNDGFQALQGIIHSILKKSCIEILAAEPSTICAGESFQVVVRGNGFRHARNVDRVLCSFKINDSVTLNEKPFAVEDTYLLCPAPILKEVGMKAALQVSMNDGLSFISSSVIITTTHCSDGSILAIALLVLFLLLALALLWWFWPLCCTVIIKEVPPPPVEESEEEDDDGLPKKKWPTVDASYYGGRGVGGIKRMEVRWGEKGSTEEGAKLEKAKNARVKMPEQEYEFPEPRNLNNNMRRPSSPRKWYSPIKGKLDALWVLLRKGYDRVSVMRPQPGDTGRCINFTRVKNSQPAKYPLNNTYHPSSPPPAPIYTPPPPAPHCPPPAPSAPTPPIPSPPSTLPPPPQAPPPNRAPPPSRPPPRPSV

human TEM8 on CHO-hTEM8 cells, sequence (Q9H6X2 33-564): as the sequence (Q9CZ52 31-562) above, with R40K, S104R, A241S, V297I, V327A, S458N, T468A, P471T, A493P counted along it

Row | Binder | EC50 [1] [nM] | EC50 [2] [nM]
1 | 7E3 (antibody, human IgG1, lambda, L234A L235A, V domains shown, Full IgG made in CHO cells, lambda constant region; also called TEM8-7E3) VH: QVQLVESGGGLVNPGGSLRLSCAVSGFTSSGFSINWVRQAPGKGLEWVSSISGIGDSIFYADSVKGRFTISRDNAKNLVFLQMNSVKAEDTAVYYCVRDKWGWGTYSLFDYWGQGTLVTVSS VL: QAVLTQPPSASGTPGQRVTISCSGSSSNIASNVVSWYQQLPGTAPKVLIYSNNRRPSGVPDRFSGSKSGASASLAISGLQSDDETHYYCAAWDDSLKGPVFGGGTQLTVLG | 0.75 | 1.41
2 | 3A3 (antibody, human IgG1, kappa, L234A L235A, V domains shown, Full IgG made in CHO cells: variable regions joined to the IgG heavy chain constant region and the kappa constant region; also called TEM8-3A3) VH: QVQLVQSGPEVKKPGAPVKISCKTSGYIFDDYGITWVRQAPGQGLEWLGWISTYNGKTSFAQKVQGRLTMTTDISTNTASMELRGLRSDDTALYYCARVFSRYIPFYFDSWGQGTLVTVSS VL: not shown | 0.71 | 1.48
3 | 11B7 (antibody, human IgG1, lambda, L234A L235A, V domains shown, Full IgG made in CHO cells, lambda constant region; also called TEM8-11B7) VH: QVQLVQSGGGVVQPGRPLRLSCAASGFNLGSYAMSWVRQAPGKGLEWVSAISGSGGSTYYADSVKGRFTISRDNSKNTLYLQMNSLRAEDTAVYYCAKILGPGNLNYYYYYGMDVWGQGTTVTVSS VL: SSELTQDPAVSVALGQTVRITCQGDSLRNSYASWYQQKPGQAPVLVIYGNNNRPSGIPDRVSGSRSGNTASLTITGAQAEDEADYYCNSRDSSGNHVVFGGGTELTVLG | 0.85 | 1.21
4 | 3B3 (antibody, human IgG1, kappa, L234A L235A, V domains shown, Full IgG made in CHO cells, kappa constant region; also called TEM8-3B3) VH: EVQLVQSGGGLVKPGGSLRLSCAASGFTFSSYSMNWVRQAPGKGLEWVSSISSSSSYIYYADSVKGRFTISRDNAKNSLYLQMNSLRAEDTAVYYCARVRPPYGMDVWGQGTLVTVSS VL: NIQMTQSPSSVSASVGDTVTISCRASQGISNWLGWYQQRPGEAPKLLIYAASHLQSGVPSRFSGSGSGTDFVLTITSLQPEDFATYYCQQSNSFPLAFGGGTKLEIKR | 1.51 | 2.14
5 | 6A6Q (antibody, human IgG1, lambda, L234A L235A, V domains shown, Full IgG made in CHO cells, lambda constant region; Variant of 6A6 whose light chain glycosylation site NRS was mutated to QRS; also called TEM8-6A6Q) VH: EVQLVESGGGVVQPGGSLRLSCAASGFTFDDYAMHWVRQAPGKGLEWVSLISGDGGSTYYADSVKGRFTISRDNSKNSLYLQMNSLKASDTAMYYCARPRWGRYSSSWPFDYWGQGTLVTVSS VL: QSALTQPASVSGSPGQSITISCTGTSSDVGTYNYVSWYQQHPGKAPKLMIYDVTDRPSGISNRFSGSKSGNTASLTISGLQAEDEGNYYCSSYTSQRSWVFGGGTKLTVLG | 0.63 | 1.16
